Source: patent publication US7138254

Tested on: cytochrome C

Sequence of trypsin (P00760 24-246): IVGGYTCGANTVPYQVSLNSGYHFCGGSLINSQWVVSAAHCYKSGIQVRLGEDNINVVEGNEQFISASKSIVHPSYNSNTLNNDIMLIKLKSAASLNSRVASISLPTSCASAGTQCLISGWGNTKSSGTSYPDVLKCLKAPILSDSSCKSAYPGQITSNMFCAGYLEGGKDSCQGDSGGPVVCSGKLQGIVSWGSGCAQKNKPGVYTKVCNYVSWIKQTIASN
Sequence of biotin conjugated trypsin (P00760 24-246): as above

Substance	peptide maps (capillary electrophoresis of FITC labeled digest), three runs over two weeks	peptide profiles of digested cytochrome C (capillary electrophoresis of FITC labeled digest)
biotin conjugated trypsin	all capillaries of the treated cassettes have the same peptide maps in the three runs	the peptide profiles of digested cytochrome C obtained from this approach and the approach described in Example 26 are consistent and reproducible
trypsin	the control capillary cassette showed some protein digestion only in the first run, but no protein digestion in the second or the third run	The obtained peptide profiles of digested cytochrome C are consistent and reproducible between each run and comparable to data obtained with full volume reactions
